T1: Ep-CAM on the surface of HT-29 human colorectal carcinoma cells (human, UniProt P16422 24-314)
T1 construct: also called Epithelial Cell Adhesion Molecule; Ep-CAM-expressing HT-29 cells
T1 sequence: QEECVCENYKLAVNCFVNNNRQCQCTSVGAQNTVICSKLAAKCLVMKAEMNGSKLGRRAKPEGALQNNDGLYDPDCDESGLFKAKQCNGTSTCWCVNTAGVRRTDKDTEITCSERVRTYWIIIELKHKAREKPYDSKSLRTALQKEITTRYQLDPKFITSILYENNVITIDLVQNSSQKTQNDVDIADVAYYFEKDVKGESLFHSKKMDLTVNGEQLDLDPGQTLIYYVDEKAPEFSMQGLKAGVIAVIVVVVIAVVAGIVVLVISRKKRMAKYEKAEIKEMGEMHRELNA


Experiments:
[1] = biological target: T1, Ep-CAM on the surface of HT-29 human …; assay: competition with 125I-labelled chimeric ING-1 on HT-29 cells
Text: (§1) Vectors constructed according to Example 6 encoding human engineered ING-1 light and heavy chain genes, for example, pING1937 (low risk human engineered ING-1) and pING1944 (low plus moderate risk human engineered ING-1) were linearized by XbaI and used to transfect serum-free adapted CHO—K1 followed by selection of G418-resistant transfectants. Protein was purified from shake flask culture supernatants by passage over a protein A column. To evaluate the binding activity of the produced immunoglobulin polypeptides, competition binding assays with the human carcinoma cell line HT-29 were performed. This colorectal carcinoma cell line expresses a molecule known as Ep-CAM on its surface. Ep-CAM is recognized by immunoglobulin polypeptides having the antigen binding specificity of the mouse-human chimeric ING-1 antibody produced by cell line HB 9812 as deposited with the ATCC.
(§2) HTG29 cells were grown to confluency (˜2×10⁵ cells/well) in 96 well plates. Mouse-human chimeric ING-1 was labeled with Na¹²⁵I (Iodo-gen®, Pierce). The competition conditions included in a 100 μl assay volume, 0.1 nM labeled mouse-human chimeric ING-1, 2-fold serial dilutions of unlabeled immunoglobulin polypeptides, for example, as produced by cells transfected with pING1937 and pING1944. […] Labeled cells were removed with NaOH and counted. […]

[2] = biological target: T1, Ep-CAM on the surface of HT-29 human …; assay: competition with iodinated low risk ING-1 on HT-29 cells
[3] = biological target: T1, Ep-CAM on the surface of HT-29 human …; assay: competition binding on HT-29 cells
Text: as §1, §2

binding result [1]	binding result [2]	Binder	further results
binds	–	mouse-human chimeric ING-1 (antibody, human IgG1, kappa, V domains shown, Variable regions of mouse antibody Br-1 with human constant regions; also called mouse-human chimeric ING-1 antibody produced by cell line HB 9812) VH: QIQLVQSGPELKKPGETVKISCKASGYTFTKYGMNWVKQAPGKGLKWMGWINTYTEEPTYGDDFKGRFAFSLETSASTANLQINNLKSEDTATYFCARFGSAVDYWGQGTSVTVSS VL: DIVMTQAAFSNPVTLGTSGSISCRSSKSLLHSNGITYLYWYLQKPGQSPQLLIYQMSNLASGVPDRFSSSGSGTDFTLRISRVEAEDVGVYYCAQNLELPRTFGGGTKLEMKR	–
binds	–	human engineered (low risk) ING-1 (antibody, human IgG1, kappa, It carries 6 low risk changes in VL and 13 low risk changes in VH; also called ING-1 (heMab); low risk human engineered ING-1) VL: DIVMTQSALSNPVTLGESGSISCRSSKSLLHSNGITYLYWYLQKPGQSPQLLIYQMSNRASGVPDRFSSSGSGTDFTLKISRVEAEDVGVYYCAQNLELPRTFGQGTKLEMKRTVAAPSVFIFPPSDEQLKSGTASVVCLLNNFYPREAKVQWKVDNALQSGNSQESVTEQDSKDSTYSLSSTLTLSKADYEKHKVYACEVTHQGLSSPVTKSFNRGEC VH: not shown	–
–	binds	modified ING-1 with low risk light chain and low plus moderate risk heavy chain (antibody, human IgG1, kappa) VL: DIVMTQSALSNPVTLGESGSISCRSSKSLLHSNGITYLYWYLQKPGQSPQLLIYQMSNRASGVPDRFSSSGSGTDFTLKISRVEAEDVGVYYCAQNLELPRTFGQGTKLEMKRTVAAPSVFIFPPSDEQLKSGTASVVCLLNNFYPREAKVQWKVDNALQSGNSQESVTEQDSKDSTYSLSSTLTLSKADYEKHKVYACEVTHQGLSSPVTKSFNRGEC VH: not shown	–
–	–	human engineered (low plus moderate risk) ING-1 (antibody, human IgG1, kappa, Whole IgG built like pING1937 (human kappa and gamma-1 constant regions); It carries 10 low plus moderate risk changes in VL and 20 in VH; also called product of pING1944) VL: DIVMTQSPLSLPVTPGEPGSISCRSSKSLLHSNGITYLYWYLQKPGQSPQLLIYQMSNRASGVPDRFSSSGSGTDFTLKISRVEAEDVGVYYCAQNLELPRTFGQGTKLEMKRTVAAPSVFIFPPSDEQLKSGTASVVCLLNNFYPREAKVQWKVDNALQSGNSQESVTEQDSKDSTYSLSSTLTLSKADYEKHKVYACEVTHQGLSSPVTKSFNRGEC VH: not shown	binding result [3]: binds
–	binds	modified ING-1 with low plus moderate risk light chain and low risk heavy chain (antibody, human IgG1, kappa) VL: DIVMTQSPLSLPVTPGEPGSISCRSSKSLLHSNGITYLYWYLQKPGQSPQLLIYQMSNRASGVPDRFSSSGSGTDFTLKISRVEAEDVGVYYCAQNLELPRTFGQGTKLEMKRTVAAPSVFIFPPSDEQLKSGTASVVCLLNNFYPREAKVQWKVDNALQSGNSQESVTEQDSKDSTYSLSSTLTLSKADYEKHKVYACEVTHQGLSSPVTKSFNRGEC VH: not shown	–
